From US20180155451A1 (published 2018)

B1: GpH7-A5/GpH7-B3 variant K334_01G/GpL16-k0 (antibody, human IgG1, kappa)
heavy 1: not shown
heavy 2: not shown
light: DIVMTQSPLSLPVTPGEPASISCQASESLVHSNRNTYLHWYLQKPGQSPQLLIYKVSNRFSGVPDRFSGSGSGTDFTLKISRVEAEDVGVYYCSQNTHVPPTFGQGTKVEIERTVAAPSVFIFPPSDEQLKSGTASVVCLLNNFYPREAKVQWKVDNALQSGNSQESVTEQDSKDSTYSLSSTLTLSKADYEKHKVYACEVTHQGLSSPVTKSFNRGEC
notes: heterodimerized antibody, mutation in one H chain only; also called K334_01G He Ab
B2: GpH7-A5/GpH7-B3 variant I336_16H/GpL16-k0 (antibody, human IgG1, kappa)
heavy 1: not shown
heavy 2: not shown
light: B1 light
notes: heterodimerized antibody, mutation in one H chain only; also called I336_16H He Ab
B3: GpH7-A5/GpH7-B3 variant I336_15Y/GpL16-k0 (antibody, human IgG1, kappa)
heavy 1: not shown
heavy 2: not shown
light: B1 light
notes: heterodimerized antibody, mutation in one H chain only; also called I336_15Y He Ab
B4: GpH7-A5/GpH7-B3 variant K326_03V/GpL16-k0 (antibody, human IgG1, kappa)
heavy 1: not shown
heavy 2: not shown
light: B1 light
notes: heterodimerized antibody, mutation in one H chain only; also called K326_03V He Ab
B5: GpH7-B3 variant K334_01G/GpL16-k0 (antibody, human IgG1, kappa)
heavy: not shown
light: B1 light
notes: homodimerized antibody, mutation in both H chains; also called K334_01G Ho Ab
B6: GpH7-B3 variant P271_19Q/GpL16-k0 (antibody, human IgG1, kappa)
heavy: not shown
light: B1 light
notes: homodimerized antibody, mutation in both H chains; also called P271_19Q Ho Ab
B7: GpH7-B3 variant K326_03V/GpL16-k0 (antibody, human IgG1, kappa)
heavy: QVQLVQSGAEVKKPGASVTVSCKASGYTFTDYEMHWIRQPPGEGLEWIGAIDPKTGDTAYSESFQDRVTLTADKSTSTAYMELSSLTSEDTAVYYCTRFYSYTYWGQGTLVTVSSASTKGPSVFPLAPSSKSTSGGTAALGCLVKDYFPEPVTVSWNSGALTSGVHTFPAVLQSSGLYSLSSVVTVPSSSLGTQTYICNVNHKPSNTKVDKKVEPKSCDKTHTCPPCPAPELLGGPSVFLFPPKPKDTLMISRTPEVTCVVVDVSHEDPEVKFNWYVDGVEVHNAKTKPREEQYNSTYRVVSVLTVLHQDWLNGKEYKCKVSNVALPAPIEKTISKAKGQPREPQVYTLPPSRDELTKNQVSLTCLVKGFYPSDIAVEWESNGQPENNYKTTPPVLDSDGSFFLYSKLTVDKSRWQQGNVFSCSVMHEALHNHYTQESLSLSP
light: B1 light
notes: homodimerized antibody, mutation in both H chains; also called K326_03V Ho Ab
B8: GpH7-B3 variant K334_18N/GpL16-k0 (antibody, human IgG1, kappa)
heavy: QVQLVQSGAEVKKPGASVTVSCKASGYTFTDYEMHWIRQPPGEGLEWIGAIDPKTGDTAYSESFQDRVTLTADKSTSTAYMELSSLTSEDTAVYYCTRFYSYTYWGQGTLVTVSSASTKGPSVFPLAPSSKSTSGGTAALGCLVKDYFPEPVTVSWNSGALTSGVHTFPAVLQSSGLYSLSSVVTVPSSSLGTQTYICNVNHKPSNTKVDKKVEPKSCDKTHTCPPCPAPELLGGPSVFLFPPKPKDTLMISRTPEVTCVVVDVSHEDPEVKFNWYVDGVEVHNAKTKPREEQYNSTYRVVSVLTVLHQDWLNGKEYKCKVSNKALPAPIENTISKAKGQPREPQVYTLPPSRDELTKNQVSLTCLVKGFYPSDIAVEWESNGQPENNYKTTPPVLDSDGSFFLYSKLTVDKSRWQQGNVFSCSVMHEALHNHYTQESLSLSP
light: B1 light
notes: homodimerized antibody, mutation in both H chains; also called K334_18N Ho Ab
B9: GpH7-B3 variant Q295_12R/GpL16-k0 (antibody, human IgG1, kappa)
heavy: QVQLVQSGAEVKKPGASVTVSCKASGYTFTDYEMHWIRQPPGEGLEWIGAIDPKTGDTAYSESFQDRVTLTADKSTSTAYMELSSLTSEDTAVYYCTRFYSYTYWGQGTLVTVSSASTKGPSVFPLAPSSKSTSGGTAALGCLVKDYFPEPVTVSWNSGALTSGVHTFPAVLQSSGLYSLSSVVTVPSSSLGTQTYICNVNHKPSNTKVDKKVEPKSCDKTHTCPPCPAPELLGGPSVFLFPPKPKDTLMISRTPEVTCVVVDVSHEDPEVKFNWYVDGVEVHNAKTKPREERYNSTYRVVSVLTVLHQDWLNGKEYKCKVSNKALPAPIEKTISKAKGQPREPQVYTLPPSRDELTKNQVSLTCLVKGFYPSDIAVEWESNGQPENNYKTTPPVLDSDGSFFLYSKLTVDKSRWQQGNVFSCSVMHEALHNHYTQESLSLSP
light: B1 light
notes: homodimerized antibody, mutation in both H chains; also called Q295_12R Ho Ab
B10: GpH7-B3 variant S324_09D/GpL16-k0 (antibody, human IgG1, kappa)
heavy: not shown
light: B1 light
notes: homodimerized antibody, mutation in both H chains; also called S324_09D Ho Ab
B11: GpH7-B3 variant K326_20W/GpL16-k0 (antibody, human IgG1, kappa)
heavy: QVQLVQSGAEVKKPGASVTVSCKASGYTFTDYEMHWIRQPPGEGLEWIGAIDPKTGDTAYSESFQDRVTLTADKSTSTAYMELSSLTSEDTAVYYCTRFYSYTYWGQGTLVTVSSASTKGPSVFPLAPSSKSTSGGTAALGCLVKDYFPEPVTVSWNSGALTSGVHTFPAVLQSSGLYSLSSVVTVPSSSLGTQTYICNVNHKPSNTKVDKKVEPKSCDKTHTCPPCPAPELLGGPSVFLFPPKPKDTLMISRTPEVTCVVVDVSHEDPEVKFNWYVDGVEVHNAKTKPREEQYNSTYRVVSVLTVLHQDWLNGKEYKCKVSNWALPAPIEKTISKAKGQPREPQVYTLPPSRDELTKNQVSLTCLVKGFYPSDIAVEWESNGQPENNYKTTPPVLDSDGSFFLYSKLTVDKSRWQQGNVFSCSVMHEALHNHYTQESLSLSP
light: B1 light
notes: homodimerized antibody, mutation in both H chains; also called K326_20W Ho Ab
B12: GpH7-B3 variant K326_08L/GpL16-k0 (antibody, human IgG1, kappa)
heavy: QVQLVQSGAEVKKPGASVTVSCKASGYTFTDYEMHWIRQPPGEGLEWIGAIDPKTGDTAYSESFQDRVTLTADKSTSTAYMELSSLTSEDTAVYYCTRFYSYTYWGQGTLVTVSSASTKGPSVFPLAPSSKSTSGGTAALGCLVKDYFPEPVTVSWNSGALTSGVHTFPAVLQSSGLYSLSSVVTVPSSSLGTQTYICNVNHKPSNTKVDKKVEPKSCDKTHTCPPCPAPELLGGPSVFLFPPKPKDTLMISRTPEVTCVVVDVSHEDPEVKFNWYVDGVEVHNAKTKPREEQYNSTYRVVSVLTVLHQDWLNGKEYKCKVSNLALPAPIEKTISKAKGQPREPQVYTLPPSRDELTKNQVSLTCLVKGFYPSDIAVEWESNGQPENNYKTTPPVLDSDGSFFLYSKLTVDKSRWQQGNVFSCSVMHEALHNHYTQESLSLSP
light: B1 light
notes: homodimerized antibody, mutation in both H chains; also called K326_08L Ho Ab
B13: GpH7-B3 variant S324_10E/GpL16-k0 (antibody, human IgG1, kappa)
heavy: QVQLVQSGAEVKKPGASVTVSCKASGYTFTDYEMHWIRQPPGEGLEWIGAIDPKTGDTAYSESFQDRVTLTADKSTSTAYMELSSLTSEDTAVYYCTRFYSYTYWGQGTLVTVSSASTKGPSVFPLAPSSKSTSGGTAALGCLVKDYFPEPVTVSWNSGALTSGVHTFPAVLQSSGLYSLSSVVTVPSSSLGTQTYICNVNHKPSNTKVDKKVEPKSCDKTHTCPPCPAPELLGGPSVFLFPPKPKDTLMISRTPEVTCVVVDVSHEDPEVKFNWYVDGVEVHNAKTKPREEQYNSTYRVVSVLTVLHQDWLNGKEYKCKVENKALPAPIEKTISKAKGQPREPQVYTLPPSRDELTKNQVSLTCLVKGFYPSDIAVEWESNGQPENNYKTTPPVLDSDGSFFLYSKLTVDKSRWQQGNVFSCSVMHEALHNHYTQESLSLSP
light: B1 light
notes: homodimerized antibody, mutation in both H chains; also called S324_10E Ho Ab
B14: GpH7-B3 variant P271_08L/GpL16-k0 (antibody, human IgG1, kappa)
heavy: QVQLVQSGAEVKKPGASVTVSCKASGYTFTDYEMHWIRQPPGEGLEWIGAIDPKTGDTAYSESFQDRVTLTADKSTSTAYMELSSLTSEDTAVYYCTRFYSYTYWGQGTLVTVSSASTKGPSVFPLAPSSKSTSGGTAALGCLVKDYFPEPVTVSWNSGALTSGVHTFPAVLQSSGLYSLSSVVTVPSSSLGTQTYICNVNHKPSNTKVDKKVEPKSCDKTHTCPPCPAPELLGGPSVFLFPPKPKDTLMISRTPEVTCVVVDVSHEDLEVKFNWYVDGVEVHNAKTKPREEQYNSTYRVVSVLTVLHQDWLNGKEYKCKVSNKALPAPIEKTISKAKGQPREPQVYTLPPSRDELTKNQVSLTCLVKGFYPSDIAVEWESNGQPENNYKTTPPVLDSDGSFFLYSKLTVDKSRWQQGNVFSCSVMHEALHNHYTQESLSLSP
light: B1 light
notes: homodimerized antibody, mutation in both H chains; also called P271_08L Ho Ab
B15: GpH7-B3 variant S267_14T/GpL16-k0 (antibody, human IgG1, kappa)
heavy: not shown
light: B1 light
notes: homodimerized antibody, mutation in both H chains; also called S267_14T Ho Ab
B16: GpH7-B3 variant S298_09D/GpL16-k0 (antibody, human IgG1, kappa)
heavy: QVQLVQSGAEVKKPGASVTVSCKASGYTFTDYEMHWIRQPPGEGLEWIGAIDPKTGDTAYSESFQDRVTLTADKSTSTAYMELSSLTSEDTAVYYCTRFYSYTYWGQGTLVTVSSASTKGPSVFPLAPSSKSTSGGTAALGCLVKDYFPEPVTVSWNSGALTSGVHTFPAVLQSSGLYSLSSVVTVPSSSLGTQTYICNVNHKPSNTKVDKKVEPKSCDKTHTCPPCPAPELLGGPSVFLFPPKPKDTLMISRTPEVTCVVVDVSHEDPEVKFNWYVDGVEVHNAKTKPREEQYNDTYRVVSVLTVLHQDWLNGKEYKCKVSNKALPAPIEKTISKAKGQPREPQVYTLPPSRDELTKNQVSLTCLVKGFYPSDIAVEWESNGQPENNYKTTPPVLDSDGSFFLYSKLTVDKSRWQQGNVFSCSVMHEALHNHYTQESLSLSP
light: B1 light
notes: homodimerized antibody, mutation in both H chains; also called S298_09D Ho Ab
B17: GpH7-B3 variant Y296_02A/GpL16-k0 (antibody, human IgG1, kappa)
heavy: not shown
light: B1 light
notes: homodimerized antibody, mutation in both H chains; also called Y296_02A Ho Ab
B18: GpH7-B3 variant Y296_08L/GpL16-k0 (antibody, human IgG1, kappa)
heavy: not shown
light: B1 light
notes: homodimerized antibody, mutation in both H chains; also called Y296_08L Ho Ab
B19: GpH7-B3 variant Y296_07I/GpL16-k0 (antibody, human IgG1, kappa)
heavy: not shown
light: B1 light
notes: homodimerized antibody, mutation in both H chains; also called Y296_07I Ho Ab
B20: GpH7-B3 variant K334_02A/GpL16-k0 (antibody, human IgG1, kappa)
heavy: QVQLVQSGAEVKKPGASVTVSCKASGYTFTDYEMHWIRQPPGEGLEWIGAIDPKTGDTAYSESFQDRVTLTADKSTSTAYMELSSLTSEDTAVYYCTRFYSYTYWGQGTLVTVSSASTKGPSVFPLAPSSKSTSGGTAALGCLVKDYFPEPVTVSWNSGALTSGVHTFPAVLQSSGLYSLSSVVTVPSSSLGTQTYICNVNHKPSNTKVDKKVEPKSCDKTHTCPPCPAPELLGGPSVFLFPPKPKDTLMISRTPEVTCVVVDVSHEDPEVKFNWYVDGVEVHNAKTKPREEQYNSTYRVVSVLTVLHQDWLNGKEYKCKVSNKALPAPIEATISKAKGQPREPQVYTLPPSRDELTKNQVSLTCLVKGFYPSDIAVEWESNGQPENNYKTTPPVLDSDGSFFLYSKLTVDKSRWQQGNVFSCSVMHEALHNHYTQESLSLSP
light: B1 light
notes: homodimerized antibody, mutation in both H chains; also called K334_02A Ho Ab
B21: GpH7-B3 variant T335_13S/GpL16-k0 (antibody, human IgG1, kappa)
heavy: not shown
light: B1 light
notes: homodimerized antibody, mutation in both H chains; also called T335_13S Ho Ab
B22: GpH7-B3 variant K334_13S/GpL16-k0 (antibody, human IgG1, kappa)
heavy: not shown
light: B1 light
notes: homodimerized antibody, mutation in both H chains; also called K334_13S Ho Ab
B23: GpH7-B3 variant S267_19Q/GpL16-k0 (antibody, human IgG1, kappa)
heavy: not shown
light: B1 light
notes: homodimerized antibody, mutation in both H chains; also called S267_19Q Ho Ab
B24: GpH7-B3 variant I336_15Y/GpL16-k0 (antibody, human IgG1, kappa)
heavy: not shown
light: B1 light
notes: homodimerized antibody, mutation in both H chains; also called I336_15Y Ho Ab
B25: GpH7-B3 variant K334_15Y/GpL16-k0 (antibody, human IgG1, kappa)
heavy: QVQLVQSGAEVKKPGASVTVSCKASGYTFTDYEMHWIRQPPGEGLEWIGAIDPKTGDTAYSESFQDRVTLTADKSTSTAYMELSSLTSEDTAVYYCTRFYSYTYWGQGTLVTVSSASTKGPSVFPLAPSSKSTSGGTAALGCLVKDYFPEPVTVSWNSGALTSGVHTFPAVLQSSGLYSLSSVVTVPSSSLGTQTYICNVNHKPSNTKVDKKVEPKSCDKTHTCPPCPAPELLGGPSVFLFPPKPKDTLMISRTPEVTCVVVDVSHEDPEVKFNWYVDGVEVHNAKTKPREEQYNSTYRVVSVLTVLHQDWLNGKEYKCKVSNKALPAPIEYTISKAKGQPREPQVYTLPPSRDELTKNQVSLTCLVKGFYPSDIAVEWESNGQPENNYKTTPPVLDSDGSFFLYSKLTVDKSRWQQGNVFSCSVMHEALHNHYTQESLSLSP
light: B1 light
notes: homodimerized antibody, mutation in both H chains; also called K334_15Y Ho Ab
B26: GpH7-B3 variant K326_10E/GpL16-k0 (antibody, human IgG1, kappa)
heavy: not shown
light: B1 light
notes: homodimerized antibody, mutation in both H chains; also called K326_10E Ho Ab
B27: GpH7-B3 variant P271_18N/GpL16-k0 (antibody, human IgG1, kappa)
heavy: not shown
light: B1 light
notes: homodimerized antibody, mutation in both H chains; also called P271_18N Ho Ab
B28: GpH7-B3 variant K334_08L/GpL16-k0 (antibody, human IgG1, kappa)
heavy: not shown
light: B1 light
notes: homodimerized antibody, mutation in both H chains; also called K334_08L Ho Ab
B29: GpH7-B3 variant Y296_03V/GpL16-k0 (antibody, human IgG1, kappa)
heavy: not shown
light: B1 light
notes: homodimerized antibody, mutation in both H chains; also called Y296_03V Ho Ab

biological target: T1, FcγRIa extracellular domain with C-terminal His tag (human, UniProt P12314 16-292); assay: SPR (Biacore), relative FcγRIa binding, GpH7-A5/GpH7-B3/GpL16-k0 (HeCon Ab) = 100
T1 construct: extracellular domain; soluble analyte in Biacore; also called FcgRI; CD64
T1 sequence (P12314 16-292): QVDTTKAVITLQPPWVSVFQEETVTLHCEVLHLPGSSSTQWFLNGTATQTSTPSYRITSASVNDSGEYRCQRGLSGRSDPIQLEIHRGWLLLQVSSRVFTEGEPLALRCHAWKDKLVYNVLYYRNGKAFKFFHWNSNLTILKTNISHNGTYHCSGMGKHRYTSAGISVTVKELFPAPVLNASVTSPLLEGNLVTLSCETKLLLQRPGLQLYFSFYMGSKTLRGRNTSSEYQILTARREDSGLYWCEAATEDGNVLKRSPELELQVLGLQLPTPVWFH

Row | He/Con_1a | Binder
1 | 104 % of control | B1
2 | 101 % of control | B2
3 | 103 % of control | B3
4 | 102 % of control | B4

biological target: T1, FcγRIa extracellular domain with …; assay: SPR (Biacore), relative FcγRIa binding, GpH7-B3/GpL16-k0 (HoCon Ab) = 100

Row | Ho/Con_1a | Binder
5 | 106 % of control | B5
6 | 104 % of control | B6
7 | 103 % of control | B7
8 | 108 % of control | B8
9 | 101 % of control | B9
10 | 106 % of control | B10
11 | 104 % of control | B11
12 | 101 % of control | B12
13 | 106 % of control | B13
14 | 103 % of control | B14
15 | 107 % of control | B15
16 | 106 % of control | B16
17 | 103 % of control | B17
18 | 105 % of control | B18
19 | 106 % of control | B19
20 | 106 % of control | B20
21 | 105 % of control | B21
22 | 106 % of control | B22
23 | 104 % of control | B23
24 | 110 % of control | B24
25 | 107 % of control | B25
26 | 105 % of control | B26
27 | 103 % of control | B27
28 | 108 % of control | B28
29 | 104 % of control | B29
